Laboratory results as given in patent publication US11780910 (dated 2023).
Where a chain is given by its changes, count along the chain named.

B1: tmAb2 (antibody, V domains shown)
VH: EVQLLESGGGLVQPGGSLRLSCAASDFNFRSYWMTWVRQAPGKGLEWVSSISSHSTYIYYADSVKGRFTISRDNSKNTLYLQMNSLRAEDTATYYCAREGWYDNWFDPWGQGTLVTVSS
VL: EIVLTQSPGTLSLSPGERATLSCRASQNIRSPYLAWYQQKPGQAPRLLIYGVSSRAAGIPDRFSGSGSGTDFTLTISRLEPEDFAVYYCQQYDDHPYTFGQGTKLEIK
B2: tmAb1 (antibody, V domains shown)
VH: B1 VH with D26G
VL: B1 VL
B3: tmAb4 (antibody, V domains shown)
VH: B1 VH with D26G, R30E, F106N
VL: B1 VL
B4: tmAb3 (antibody, V domains shown)
VH: B1 VH with D26G, R30E
VL: B1 VL

Assays:
human ANGPTL3 17-220 [1] = target: T1, human ANGPTL3 17-220 (human); assay: SPR, pH 7.4, 37C
T1 chain: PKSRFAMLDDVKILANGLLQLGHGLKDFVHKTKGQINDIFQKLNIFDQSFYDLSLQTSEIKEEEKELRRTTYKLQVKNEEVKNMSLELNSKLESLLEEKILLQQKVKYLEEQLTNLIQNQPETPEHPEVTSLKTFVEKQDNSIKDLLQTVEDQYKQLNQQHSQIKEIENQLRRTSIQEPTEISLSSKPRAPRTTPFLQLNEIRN

human ANGPTL3 17-220 [2] = target: T1, human ANGPTL3 17-220; assay: SPR, pH 6.0, 37C
human ANGPTL3 17-220 [3] = target: T1, human ANGPTL3 17-220; assay: SPR, pH 6.0, 37C

Binder | Kd (human ANGPTL3 17-220 [1]) [nM] | binding result (human ANGPTL3 17-220 [2]) | Kd (human ANGPTL3 17-220 [3]) [nM]
B1 | 43 | no binding | 
B2 | 21 |  | 2000
B3 | 56 | no binding | 
B4 | 18 |  | 3000
